Experiment: yeast display, Sf9 membrane polyspecificity reagent, FACS + sequencing; frameworks hold sequencing errors
Method in brief: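 Nanobodies from a synthetic yeast display library (Saccharomyces cerevisiae BJ5465), induced 36–48 hours with galactose, were stained 1 hour at 4 °C with 10% biotinylated, detergent-solubilized Sf9 membrane reagent, enriched on streptavidin microbeads, then FACS-sorted. Anti-HA (expression) and streptavidin (reagent binding) fluorescence set low and high (top ~1%) gates. Polyreactivity labels come from the gate of origin. Genes were colony-PCR amplified, MiSeq 2 × 250 sequenced and filtered by CDR length.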
In the case of “QDQLVESGGGLVQAGGRLRLSCAASGSIFVRNFMGWYRQAPGKERELVPAISWNGGSTFYADSVKWRFTISRDNAKNTVYLQMNSLKPEETAVYYCATRYGRHGWFYLYDYWGQGTQVTVSS”, the “polyreactivity (PSR sort gate)” value is reported as “low polyreactivity”.
In the case of “QDQLVESGGGLVQAGGSLLLSCAASGGIFRFKAMGWYRQARGKERELVAAIIRGGSTYYADSVKGRFTISRDNAKNTVYLQMISLKPEDTAVYDCAADYEYRTKTRDGYYCGQGTQVTVSS”, the “polyreactivity (PSR sort gate)” value is reported as “low polyreactivity”.
In the case of “QDQLVESGGGLVQAGGSLPLSCAASGLTFDYYVMGGYRQAPGKERELVATISWSGDITYYADSVKGRFTISRDNAKNTVYLQMNSLKPEDTAVYYCAADPYSWREGGYWGQGTQVTVSS”, the “polyreactivity (PSR sort gate)” value is reported as “low polyreactivity”.
In the case of “QDQLVESGGGLVQAGGSLRFSCAASGRIFTYYTMGWYRQAPGKERELVARITFSAGRTYYADSVKGRFTISRDNAKNTVYLQMNSLKPEDTAVYYCAARSYHYRNYYWGQGTQVTVSS”, the “polyreactivity (PSR sort gate)” value is reported as “high polyreactivity”.
For “QDQLVESGGGLVQAGGSLRIICAASGSIVVTNAMGWYRQAPGKVRELVAAMSGRADSTYADSVKGRFTISRDNAKNTVYLQMNSLKPEDTAVDYCAAKVRGWHYYYCGQGTQVTVSS”, the “polyreactivity (PSR sort gate)” value was “low polyreactivity”.
In the case of “QDQLVESGGGLVQAGGSLRISCAASGRIFYYYGMGWYRQAPGKEWELVAAITSDGDTNYADSVKGRLTISRDNAKNTVYLQMNSLKPADTAVYYCAGKWDWGYWRGFQYGFNYWGQGTQVTVSS”, the “polyreactivity (PSR sort gate)” value is reported as “low polyreactivity”.
With “QDQLVESGGGLVQAGGSLRLICAASGRIFGVNAMGWYRQAPGKERELVAVISSGGSTYYADSVKGRFTISRDNAKNTVYLQMNSLKPEDTAVYYCAAEIYFFVSYDYWGQGTQVTVSS” the “polyreactivity (PSR sort gate)” value was “low polyreactivity”.
For “QDQLVESGGGLVQAGGSLRLICAASGRIFVYYAMGWYRQAPGKERVLVATISSGGSTYYADSVKGRFTISRDNAKNTVYLQMNSLKPEDTAVYYCAADTDNRDLAYYYKGDYWGQGTQVTVSS”, the “polyreactivity (PSR sort gate)” value was “low polyreactivity”.
With “QDQLVESGGGLVQAGGSLRLICAASGRILTSYAMGWYRQAPGKERELVAAISGSSASTYYADSVKGRFTISRDNAKNTVYLQMNSLKPEDTAVYYCAAYKYDYRVDTGYDYWGQGTQVTVSS” the “polyreactivity (PSR sort gate)” value was “low polyreactivity”.
With “QDQLVESGGGLVQAGGSLRLICAASGRSLIHYAMGWYRQAPGKERELVASMTYSGGSTYYADSVKGRFTISRDNAKMTVYLQMNSLKPEDTAVYYCAATLGNRWFHYNYWGQGTQVTVSS” the “polyreactivity (PSR sort gate)” value was “low polyreactivity”.
In the case of “QDQLVESGGGLVQAGGSLRLICAASGRTFTFYAMGWSRQAPGKERELVAAIRRGGSTNYADSVKGRFTISRDNAKNTVYLQMNSLKPEDTAVYYCNKRVWYPYWTLDYWGQGTQVTVSS”, the “polyreactivity (PSR sort gate)” value is reported as “low polyreactivity”.
For “QDQLVESGGGLVQAGGSLRLICAASGRTFYQYVMGWYRQAPGKERELVAAIRSGGNTYYADSVKGRFTISRDNAKNTVYLQMNSLKPEDTAVYYCAVQRGYYRYRLGRYGYDYWGQGTQVTVSS”, the “polyreactivity (PSR sort gate)” value was “high polyreactivity”.
For “QDQLVESGGGLVQAGGSLRLICAASGSIFEPYVMGWYRQAPGKERELVAAIRQTGGSTYYADSVKGRFTISRDNAKNTVYLQMNSLKPEDTAVYYCNAEQNPSGLYDYRGVEGEMGYWGQGTQVTVSS”, the “polyreactivity (PSR sort gate)” value was “low polyreactivity”.
In the case of “QDQLVESGGGLVQAGGSLRLICAASGSTLPRYTMGWYRQAPGKERELVAAISFSGSSTYYADSVKGRFTISRDNAKNTVYLQMNSLKPEDTAVYYCRYGYNYWGQGTQVTVSS”, the “polyreactivity (PSR sort gate)” value is reported as “high polyreactivity”.
For “QDQLVESGGGLVQAGGSLRLRCADYGSTFYYYAMGWYRQAPGKERELVAVITRGGGTYYADSVKGRFTISRDNAKNTVYLQMNSLKPEDTAVYYCNARQRSSTRKGYNYWGQGTEVTVSS”, the “polyreactivity (PSR sort gate)” value was “high polyreactivity”.
With “QDQLVESGGGLVQAGGSLRLSCAASAFIFSSYAMGWYRQAPGKERELVAAITVRAGRTYYADSVKGRFTISRDNAKYTVYLEMNSLKPEDSAVYYCAADSGLWGYYYWGQGTQVTVSS” the “polyreactivity (PSR sort gate)” value was “high polyreactivity”.
For “QDQLVESGGGLVQAGGSLRLSCAASGFIFALYAMGWYRQAPGKERELVAAINWSGGRTYYADSVKGRFTISRDNAKNTVYLQMNSLKPEDTAVYYCNRRAFSPYAANYYYWGQGTQVTVSS”, the “polyreactivity (PSR sort gate)” value was “high polyreactivity”.
For “QDQLVESGGGLVQAGGSLRLSCAASGFIFPIYAMGWYRQAPGKERELVAGISGSGTSTYYADSVKGRFTISRDNAKNTVYFLMNSLKPEDTAVYYCNILWRGAARTRWDRGYWGLGTQVTVSS”, the “polyreactivity (PSR sort gate)” value was “high polyreactivity”.
In the case of “QDQLVESGGGLVQAGGSLRLSCAASGFIFWFYAMGWYRQAPGKERELVASISARGARTYYADSVKGRFTISRDNAKNTVYLQMNSLKPEDTAVYYCATTSPVWWRADDYWGQGTQVTVSS”, the “polyreactivity (PSR sort gate)” value is reported as “high polyreactivity”.
With “QDQLVESGGGLVQAGGSLRLSCAASGFILKPNAMGWYRQAPGKERELVAAISWSSGSPDYADSVKGRFTISRDNAKNTVYLQMNSLKPEDTAVYYCAADYFVYPDDWYDYWGQGTQVTVSS” the “polyreactivity (PSR sort gate)” value was “low polyreactivity”.
With “QDQLVESGGGLVQAGGSLRLSCAASGFTFFPYAMGWYRQAPGKERELVAGINDGGSTNYADSVKGRFTISRDNAKNTVYLQLNSLKPEDTAVYYCNADTPLSGGSSMGYWGQGTQVTVSS” the “polyreactivity (PSR sort gate)” value was “low polyreactivity”.
In the case of “QDQLVESGGGLVQAGGSLRLSCAASGFTFGSYAMGWYRQAPGKERELVAAISSNGGNTYYADSVKGRFTISRDNAKNTVYLQMNSLKPEDTAVYYCAARYPSGTRKWYGYWGQGTQVTVSS”, the “polyreactivity (PSR sort gate)” value is reported as “high polyreactivity”.
With “QDQLVESGGGLVQAGGSLRLSCAASGFTFGYYVMGWYRQAPGKERELVAAITQRGGSTYADSVKGRFTISRDNAKNTVYLQMNSLKPEDTAVYYCAAPIYNGYASWQVYYWGQGTQVTVSS” the “polyreactivity (PSR sort gate)” value was “high polyreactivity”.
For “QDQLVESGGGLVQAGGSLRLSCAASGFTFQDYAMGWYRPAPGKERELVAAISTSDGNTYYADSVKGRFTISRDNAKNTVYLQMNSLKPEDTAVYYCAAQRNYGWVKFYYWGQGTQVTVSS”, the “polyreactivity (PSR sort gate)” value was “high polyreactivity”.
In the case of “QDQLVESGGGLVQAGGSLRLSCAASGFTFSHNVMGWSRQAPGKERELVAAITWSGDGTYYADSVKGRFTISRDNAKKSVYFQMNSLKTEDTAVYYCNARYGKEYDYWGQGTQVTVSS”, the “polyreactivity (PSR sort gate)” value is reported as “low polyreactivity”.
With “QDQLVESGGGLVQAGGSLRLSCAASGFTFYFYAMGWYRQAPGKERELVDAISRSGSRTYYADSVKGRFTISRDNAKNSVYLQMNILKPEDTAVYYCARVRPRGLYFVLHYDYWGQGTQVTVSS” the “polyreactivity (PSR sort gate)” value was “high polyreactivity”.
In the case of “QDQLVESGGGLVQAGGSLRLSCAASGFTFYYNAMVLYRQAPGKERELVASISSNGTSTYYADSVKGRFTISLDNEKNTVYLHMNILKPEDTAVHYCNVDIFDPRTYVYWGQGTQVTVSS”, the “polyreactivity (PSR sort gate)” value is reported as “low polyreactivity”.
In the case of “QDQLVESGGGLVQAGGSLRLSCAASGFTIQAYAMGWYRQAPGKERELVATISKSGGRTYYADSVKGRFTISRDNAKNTVYLQMNSLKPEDTAVYYCNKRVSGRHYDYWGQGTQVTVSS”, the “polyreactivity (PSR sort gate)” value is reported as “high polyreactivity”.
For “QDQLVESGGGLVQAGGSLRLSCAASGGIFLGNAMGWYRQAPGKERELVAAISFSGGSTYYADSVKGRFTISRDNAKNTVYLQMNSLKPEDTAVYYCAAAWNRGKYNYYYWGQGTQVTVSS”, the “polyreactivity (PSR sort gate)” value was “high polyreactivity”.
With “QDQLVESGGGLVQAGGSLRLSCAASGGNFYGNAMGWYRQAPGKERELVATISRRGGSTYYADSVKGRFTISRDNAKNSVYLQMNSLKPEDTAVYYCAADARSSYYTKRFDYWGQGTQVTVSS” the “polyreactivity (PSR sort gate)” value was “high polyreactivity”.
For “QDQLVESGGGLVQAGGSLRLSCAASGGTFGGYAMGWYRQAPGKERELVAAITYSGGSTYYADSVKGRFTISRDNAKNTVYLQMNSLKPEDTAVYYCAQYHYRYYYWGQGTQVTVSS”, the “polyreactivity (PSR sort gate)” value was “high polyreactivity”.
With “QDQLVESGGGLVQAGGSLRLSCAASGIIFEYYAMGWYRQAPGKEREFVASITSSDGSTYYADSVKGRFTISRDNAKNTVYLQMNILKPEDTAVYYCAAAGDYVVPISSTAGFGGDYWGQGTQVTVSS” the “polyreactivity (PSR sort gate)” value was “low polyreactivity”.
In the case of “QDQLVESGGGLVQAGGSLRLSCAASGIIFYGYGMGWYRPAPGKERELVAAISRSGGSTYYADSVKGRFTISRDNAKNTVYLQMNSLKPEDTAVYSCAASGVTYDYWGQGTQVTVSS”, the “polyreactivity (PSR sort gate)” value is reported as “high polyreactivity”.
With “QDQLVESGGGLVQAGGSLRLSCAASGINFPLYAMGWYRQAAGKERELVAAISSSDGDTFYADSVKWRFTISRDNAKNTVYLQMNSLKPYDTAVYYCAAVAPTELLYTYGYYPYYYWGQGTQVTVSS” the “polyreactivity (PSR sort gate)” value was “high polyreactivity”.
For “QDQLVESGGGLVQAGGSLRLSCAASGITFAGYARGWYRQAPGKERELVAAITGRGGSTYYADSVKGRFTISRDNAKNTVYLQMNSLKPEDTAVYYCAARSSKTGTGVRFGYWGQGTQVTVSS”, the “polyreactivity (PSR sort gate)” value was “high polyreactivity”.
For “QDQLVESGGGLVQAGGSLRLSCAASGITFAYYAMGWYRQAPGQERDFVAAINGGGSTNYADSVKGRFTISRDNAKNTVYLQMKSLKAEDTAVYYCNARRAYRAWDYPYDYWGQGTQVTVSS”, the “polyreactivity (PSR sort gate)” value was “high polyreactivity”.
In the case of “QDQLVESGGGLVQAGGSLRLSCAASGITFPGYPMGWYRHAPGKEREFVAAISWGGVSTYYADSVMGRFTISRDNAKNTVYLQMNSLKPEDTAVYYCNAEYPWSVVGYDYWGQGTQVTVSS”, the “polyreactivity (PSR sort gate)” value is reported as “low polyreactivity”.
In the case of “QDQLVESGGGLVQAGGSLRLSCAASGITLQLNAMGWYIQAPGKEREFVARISISGGRTYYADSVKGRFTISRDNAKNTVYLQMNSLKPEDTAVYYCAARVGRGYREYGYWGQGTQVTVSS”, the “polyreactivity (PSR sort gate)” value is reported as “high polyreactivity”.
With “QDQLVESGGGLVQAGGSLRLSCAASGLTFSLYAMGWYRQAPGKERELVAAISWTGGSTYYADSVKGRFTISRDTPKNTVYLQMNSLKPEDTAVYYCNARYTLFARYGYDYWGQGTQVTVSS” the “polyreactivity (PSR sort gate)” value was “low polyreactivity”.
With “QDQLVESGGGLVQAGGSLRLSCAASGLTLYKNGLGWYRQAHGKEMELVAVISRSGGRTYYADSVKGRFTISRDNAKYTVYLQMNSLKPEDTAVYYCAARQYGPSYTYYYWGQGTQVTVSS” the “polyreactivity (PSR sort gate)” value was “high polyreactivity”.
In the case of “QDQLVESGGGLVQAGGSLRLSCAASGNIFTSNAMGWYRQAPGKERELVAANTSGGSTYYADSVKGRFTISRDNAKNTVYLQMYSLKPEDTAVYFCASLRRPHLRPYYYWGQGTQGTVSS”, the “polyreactivity (PSR sort gate)” value is reported as “high polyreactivity”.

Source: the nanobody polyreactivity screen of Harvey et al. (2022)
